In the supplement of paper PMC10065799, “High-throughput profiling of sequence recognition by tyrosine kinases and SH2 domains using bacterial peptide display” (eLife, 2023):

Assays:
AncSZ = assay: phosphorylation enrichment, bacterial display (enrichment ratio); higher = better substrate or ligand; peptides without Tyr show the background
EPHB1 = EPHB1 (UniProt P54762); assay: as above
EPHB2 = EPHB2 (UniProt P29323); assay: as above
FGFR1 = FGFR1 (UniProt P11362); assay: as above
FGFR3 = FGFR3 (UniProt P22607); assay: as above
Fer (mouse) = assay: as above
Fes = Fes (UniProt P07332); assay: as above
Fyn = Fyn (UniProt P06241); assay: as above
Hck = Hck (UniProt P08631); assay: as above
Jak2 = Jak2 (UniProt O60674); assay: as above
MERTK = MERTK (UniProt Q12866); assay: as above
c-Abl (mouse) = assay: as above
c-Src = assay: as above
Grb2 SH2 = Grb2 SH2 (UniProt P62993); assay: SH2 binding enrichment of the phosphorylated peptide, bacterial display (enrichment ratio); higher = better substrate or ligand; peptides without Tyr show the background
SHP2-C SH2 = assay: as above
c-Src SH2 = assay: as above
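For SH2 binding enrichment of the phosphorylated peptide, bacterial display in this document: peptide library displayed on the E. coli surface as eCPX fusions, selected cells deep-sequenced, score is each peptide's frequency after selection divided by its frequency in the input.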
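For phosphorylation enrichment, bacterial display in this document: 11-residue human phosphosite peptides and single-mutation variants displayed on the E. coli surface, counted by deep sequencing, each peptide's frequency after selection divided by its frequency in the unselected input library; frequency after pTyr selection over input frequency; kinase dosed for 20-30% of maximal phosphorylation in three min.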

Chain of EPHB2 (P29323 whole entry, looked up): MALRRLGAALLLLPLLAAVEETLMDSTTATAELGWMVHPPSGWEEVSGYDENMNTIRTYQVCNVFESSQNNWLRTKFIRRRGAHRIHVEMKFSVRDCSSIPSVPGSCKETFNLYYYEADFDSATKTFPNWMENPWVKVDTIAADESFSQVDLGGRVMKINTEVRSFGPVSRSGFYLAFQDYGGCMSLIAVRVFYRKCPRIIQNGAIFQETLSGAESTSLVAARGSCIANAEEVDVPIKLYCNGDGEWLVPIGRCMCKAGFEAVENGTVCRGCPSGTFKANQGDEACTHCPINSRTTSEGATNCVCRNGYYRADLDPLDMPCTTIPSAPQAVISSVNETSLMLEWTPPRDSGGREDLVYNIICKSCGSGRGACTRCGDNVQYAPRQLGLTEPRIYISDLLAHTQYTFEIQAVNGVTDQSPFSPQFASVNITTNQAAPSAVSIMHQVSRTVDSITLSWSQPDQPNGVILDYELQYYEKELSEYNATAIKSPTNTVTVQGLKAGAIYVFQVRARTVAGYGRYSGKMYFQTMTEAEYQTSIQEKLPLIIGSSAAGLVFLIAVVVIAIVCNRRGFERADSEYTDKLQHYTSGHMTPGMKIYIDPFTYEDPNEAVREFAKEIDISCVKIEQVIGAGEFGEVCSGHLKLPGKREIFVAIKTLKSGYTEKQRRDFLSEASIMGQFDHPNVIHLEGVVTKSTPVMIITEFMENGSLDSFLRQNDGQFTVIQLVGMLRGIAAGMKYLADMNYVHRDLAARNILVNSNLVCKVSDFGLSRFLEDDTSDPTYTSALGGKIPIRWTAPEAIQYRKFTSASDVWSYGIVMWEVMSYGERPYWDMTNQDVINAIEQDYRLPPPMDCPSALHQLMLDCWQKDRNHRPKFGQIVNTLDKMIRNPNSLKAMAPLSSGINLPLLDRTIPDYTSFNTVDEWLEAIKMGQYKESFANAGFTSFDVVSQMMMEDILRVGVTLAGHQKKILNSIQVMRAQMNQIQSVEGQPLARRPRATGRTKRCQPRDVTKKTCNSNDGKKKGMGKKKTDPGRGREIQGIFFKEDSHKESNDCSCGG
Chain of Grb2 SH2 (P62993 whole entry, looked up): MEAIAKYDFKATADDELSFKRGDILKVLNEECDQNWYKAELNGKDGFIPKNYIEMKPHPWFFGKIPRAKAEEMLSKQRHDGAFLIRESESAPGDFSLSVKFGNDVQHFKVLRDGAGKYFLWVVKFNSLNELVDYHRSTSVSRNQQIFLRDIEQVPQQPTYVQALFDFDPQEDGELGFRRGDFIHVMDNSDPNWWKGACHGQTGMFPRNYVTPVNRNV
Chain of Jak2 (O60674 whole entry, looked up): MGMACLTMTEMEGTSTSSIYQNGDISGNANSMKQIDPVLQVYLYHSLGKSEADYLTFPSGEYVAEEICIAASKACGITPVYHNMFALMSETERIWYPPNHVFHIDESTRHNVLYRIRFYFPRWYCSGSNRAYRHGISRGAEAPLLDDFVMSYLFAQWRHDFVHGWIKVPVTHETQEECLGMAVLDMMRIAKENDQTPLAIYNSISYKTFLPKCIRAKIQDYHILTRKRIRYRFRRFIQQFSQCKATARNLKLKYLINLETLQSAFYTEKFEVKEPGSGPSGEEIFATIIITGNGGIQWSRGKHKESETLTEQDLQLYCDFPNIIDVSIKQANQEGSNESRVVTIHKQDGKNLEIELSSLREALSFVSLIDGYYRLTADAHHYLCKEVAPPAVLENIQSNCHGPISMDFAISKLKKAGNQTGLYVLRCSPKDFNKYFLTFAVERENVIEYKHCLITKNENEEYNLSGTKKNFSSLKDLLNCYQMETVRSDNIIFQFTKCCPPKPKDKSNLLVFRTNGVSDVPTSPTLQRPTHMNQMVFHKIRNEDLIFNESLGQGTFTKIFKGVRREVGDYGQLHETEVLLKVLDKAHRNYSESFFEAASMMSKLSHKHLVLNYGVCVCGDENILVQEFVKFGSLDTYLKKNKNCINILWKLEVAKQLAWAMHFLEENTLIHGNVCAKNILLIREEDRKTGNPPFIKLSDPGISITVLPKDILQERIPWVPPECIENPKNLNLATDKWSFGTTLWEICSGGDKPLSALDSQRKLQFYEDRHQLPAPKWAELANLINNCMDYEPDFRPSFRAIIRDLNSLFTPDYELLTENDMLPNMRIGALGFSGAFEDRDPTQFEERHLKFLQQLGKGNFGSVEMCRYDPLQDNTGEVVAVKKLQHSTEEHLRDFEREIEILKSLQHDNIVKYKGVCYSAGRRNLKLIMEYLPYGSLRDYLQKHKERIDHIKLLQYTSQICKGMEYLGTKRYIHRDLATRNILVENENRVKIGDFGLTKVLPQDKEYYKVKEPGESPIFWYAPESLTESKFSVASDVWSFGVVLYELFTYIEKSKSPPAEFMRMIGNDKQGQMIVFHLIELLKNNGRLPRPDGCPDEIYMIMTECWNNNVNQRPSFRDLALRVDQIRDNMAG
Chain of FGFR3 (P22607 whole entry, looked up): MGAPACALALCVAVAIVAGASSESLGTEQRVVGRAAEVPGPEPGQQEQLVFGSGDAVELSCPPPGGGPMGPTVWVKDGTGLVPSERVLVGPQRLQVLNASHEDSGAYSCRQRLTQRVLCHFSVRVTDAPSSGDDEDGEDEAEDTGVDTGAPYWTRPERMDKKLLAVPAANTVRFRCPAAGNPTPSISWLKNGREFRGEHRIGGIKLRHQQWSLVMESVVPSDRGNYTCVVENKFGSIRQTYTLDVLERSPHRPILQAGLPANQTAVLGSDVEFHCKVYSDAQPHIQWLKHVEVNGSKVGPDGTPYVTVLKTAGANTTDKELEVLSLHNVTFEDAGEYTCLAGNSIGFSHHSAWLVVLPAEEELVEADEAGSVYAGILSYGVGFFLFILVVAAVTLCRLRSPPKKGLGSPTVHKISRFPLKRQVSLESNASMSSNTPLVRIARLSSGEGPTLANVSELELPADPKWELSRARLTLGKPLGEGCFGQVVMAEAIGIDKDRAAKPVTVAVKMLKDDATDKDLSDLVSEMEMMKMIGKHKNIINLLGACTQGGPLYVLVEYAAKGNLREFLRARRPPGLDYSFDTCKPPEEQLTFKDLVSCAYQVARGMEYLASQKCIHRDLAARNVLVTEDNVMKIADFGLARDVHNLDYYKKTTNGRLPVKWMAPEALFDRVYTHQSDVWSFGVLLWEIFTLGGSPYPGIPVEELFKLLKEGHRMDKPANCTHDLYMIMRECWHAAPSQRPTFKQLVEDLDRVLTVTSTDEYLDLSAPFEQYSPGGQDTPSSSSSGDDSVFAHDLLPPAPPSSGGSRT
Chain of MERTK (Q12866 whole entry, looked up): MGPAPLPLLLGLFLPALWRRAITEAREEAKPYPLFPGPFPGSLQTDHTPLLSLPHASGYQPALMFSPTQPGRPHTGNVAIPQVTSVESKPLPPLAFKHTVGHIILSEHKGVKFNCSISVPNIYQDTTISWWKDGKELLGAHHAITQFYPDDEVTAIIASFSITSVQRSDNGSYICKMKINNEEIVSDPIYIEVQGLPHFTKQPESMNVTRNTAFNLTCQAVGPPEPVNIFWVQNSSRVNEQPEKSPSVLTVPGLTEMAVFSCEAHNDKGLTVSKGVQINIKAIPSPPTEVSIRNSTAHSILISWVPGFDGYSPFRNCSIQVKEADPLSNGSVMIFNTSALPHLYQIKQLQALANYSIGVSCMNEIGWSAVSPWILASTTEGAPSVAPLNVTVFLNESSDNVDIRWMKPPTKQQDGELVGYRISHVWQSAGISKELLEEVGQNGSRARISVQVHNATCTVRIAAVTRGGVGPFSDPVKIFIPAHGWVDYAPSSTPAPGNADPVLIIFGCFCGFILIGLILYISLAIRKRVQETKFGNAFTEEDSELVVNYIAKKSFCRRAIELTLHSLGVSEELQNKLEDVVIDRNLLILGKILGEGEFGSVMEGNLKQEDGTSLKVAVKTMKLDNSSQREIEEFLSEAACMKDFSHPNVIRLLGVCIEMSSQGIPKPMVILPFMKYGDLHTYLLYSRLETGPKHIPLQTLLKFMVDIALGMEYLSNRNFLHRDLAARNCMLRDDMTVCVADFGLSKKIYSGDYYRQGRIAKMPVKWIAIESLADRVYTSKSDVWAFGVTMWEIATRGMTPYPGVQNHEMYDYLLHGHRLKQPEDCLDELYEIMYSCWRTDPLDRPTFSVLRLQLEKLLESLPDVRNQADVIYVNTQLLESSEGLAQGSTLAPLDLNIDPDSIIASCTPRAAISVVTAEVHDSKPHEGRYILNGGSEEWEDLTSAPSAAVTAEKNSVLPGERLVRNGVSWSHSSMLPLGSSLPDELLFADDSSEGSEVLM
Chain of Fyn (P06241 whole entry, looked up): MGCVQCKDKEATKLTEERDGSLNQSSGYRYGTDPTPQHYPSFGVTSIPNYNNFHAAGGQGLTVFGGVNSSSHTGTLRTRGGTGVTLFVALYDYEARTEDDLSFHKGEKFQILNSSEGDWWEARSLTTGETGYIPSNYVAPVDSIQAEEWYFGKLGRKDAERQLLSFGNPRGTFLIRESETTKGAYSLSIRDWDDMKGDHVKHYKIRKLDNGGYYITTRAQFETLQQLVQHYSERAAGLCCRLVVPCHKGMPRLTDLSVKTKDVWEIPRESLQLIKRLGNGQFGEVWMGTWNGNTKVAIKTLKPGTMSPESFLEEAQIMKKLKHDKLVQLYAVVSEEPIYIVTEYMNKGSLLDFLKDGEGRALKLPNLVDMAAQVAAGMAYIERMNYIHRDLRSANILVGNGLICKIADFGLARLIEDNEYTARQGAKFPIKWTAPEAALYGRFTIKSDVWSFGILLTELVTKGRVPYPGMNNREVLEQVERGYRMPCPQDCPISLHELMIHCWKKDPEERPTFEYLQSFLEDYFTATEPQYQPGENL

Sequence | phosphorylation enrichment (AncSZ) | phosphorylation enrichment (EPHB1) | phosphorylation enrichment (EPHB2) | phosphorylation enrichment (FGFR1) | phosphorylation enrichment (FGFR3) | phosphorylation enrichment (Fer (mouse)) | phosphorylation enrichment (Fes) | phosphorylation enrichment (Fyn) | phosphorylation enrichment (Hck) | phosphorylation enrichment (Jak2) | phosphorylation enrichment (MERTK) | phosphorylation enrichment (c-Abl (mouse)) | phosphorylation enrichment (c-Src) | SH2 binding enrichment (Grb2 SH2) | SH2 binding enrichment (SHP2-C SH2) | SH2 binding enrichment (c-Src SH2)
FSGKAYADEER [CRIM1_Y826] | 0.895 | 0.565 | 0.571 | 0.694 | 0.566 | 0.486 | 1.03 | 0.463 | 0.499 | 0.837 | 0.395 | 0.786 | 0.496 | 1 | 0.748 | 0.515
QFPDVYAREEV [CRX_Y67_YF] | 1.06 | 0.514 | 0.489 | 0.649 | 0.693 | 0.879 | 1.43 | 0.624 | 0.645 | 1.53 | 0.603 | 0.68 | 0.672 | 0.854 | 0.776 | 0.658
CKPGFYNLKEK [LAMA1_Y490] | 0.693 | 0.543 | 0.469 | 0.472 | 0.507 | 0.43 | 0.793 | 0.359 | 0.357 | 0.602 | 0.378 | 0.568 | 0.34 | 1.06 | 0.769 | 0.611
VVEFGYEFFAK [PPP1CB_Y254_D252Y_YF] | 1.52 | 0.583 | 0.52 | 0.558 | 0.829 | 0.553 | 1.26 | 0.573 | 0.559 | 1.41 | 0.488 | 0.965 | 0.503 | 0.96 | 0.635 | 1.09
PNATLYKMTSI [SERPINA7_Y40_S43T] | 0.883 | 0.642 | 1.02 | 0.86 | 0.668 | 0.477 | 1.5 | 0.604 | 0.636 | 1.16 | 0.918 | 1.3 | 1.04 | 0.768 | 0.684 | 0.272
TDEFEYDELIV [TGM1_Y136_YF] | 2.29 | 1.12 | 2.23 | 1.69 | 2.03 | 0.61 | 2.77 | 1.59 | 1.56 | 1.34 | 0.622 | 0.91 | 0.716 | 0.938 | 0.859 | 0.563
AEQDWYHGAIP [FER_Y461] | 1.06 | 0.481 | 0.546 | 1.72 | 1.54 | 0.559 | 0.921 | 0.846 | 1.22 | 0.802 | 0.443 | 0.646 | 1.19 | 0.725 | 0.478 | 0.634
AACQHYGVRTC [NR4A2_Y275] | 0.592 | 0.381 | 0.412 | 0.472 | 0.405 | 0.379 | 0.581 | 0.452 | 0.421 | 0.513 | 0.406 | 0.424 | 0.408 | 1 | 0.896 | 0.721
EFISEHCGEII [EZH2_Y641_Y641H] | 1.35 | 0.733 | 0.644 | 0.544 | 0.722 | 0.652 | 1.31 | 0.639 | 0.602 | 1.17 | 0.658 | 0.806 | 0.56 | 0.831 | 0.784 | 0.633
LEFGDYHPLKP [VPS35L_Y32] | 2.75 | 1.3 | 1.26 | 11.5 | 7.68 | 0.846 | 1.05 | 0.696 | 4.28 | 6.7 | 1.66 | 1.19 | 0.821 | 0.902 | 0.733 | 0.58
KMKGEYYRYLA [YWHAG_Y130_D129E] | 0.981 | 0.639 | 0.717 | 4.78 | 3.14 | 0.409 | 0.961 | 0.607 | 1.09 | 1.68 | 0.957 | 1.34 | 1.07 | 1.65 | 1.16 | 1.25
ETAENYLGFTA [HSPA9_Y181_H184Y_YF] | 1.17 | 0.743 | 0.633 | 0.578 | 0.807 | 0.486 | 1.1 | 0.505 | 0.53 | 0.855 | 0.514 | 0.879 | 0.569 | 0.703 | 0.654 | 0.45
QTENKYVSVSG [EIF2AK3_Y565_D566V] | 0.61 | 0.808 | 0.683 | 0.527 | 0.581 | 0.626 | 1.51 | 0.627 | 0.85 | 0.754 | 0.548 | 0.938 | 0.693 | 0.707 | 2.59 | 0.828
VGSEDYGRDLT [SPTAN1_Y1792] | 1.1 | 0.626 | 0.587 | 0.564 | 1.04 | 0.621 | 1.44 | 0.588 | 0.592 | 1.24 | 0.456 | 1.04 | 0.513 | 0.63 | 0.571 | 0.369
LVTCSYLLGNS [LMNA_Y646_R644C] | 2.16 | 1.14 | 1.56 | 0.76 | 1.72 | 0.959 | 3.29 | 0.756 | 0.803 | 2.94 | 0.99 | 1.95 | 1.3 | 0.732 | 0.765 | 0.37
VLSIDYFFPPQ [AR_Y552_P549S_YF] | 5.83 | 1.08 | 0.843 | 12.7 | 10.5 | 0.516 | 1.12 | 0.497 | 0.572 | 1.58 | 0.719 | 0.784 | 0.827 | 1.46 | 0.998 | 0.852
LWPIWYSCHRP [MRGPRX1_Y130_R131S] | 1.82 | 0.83 | 0.694 | 0.643 | 1.04 | 0.881 | 1.97 | 0.519 | 0.601 | 1.27 | 0.687 | 0.943 | 0.601 | 0.924 | 0.665 | 0.535

Sequence | phosphorylation enrichment (AncSZ) | phosphorylation enrichment (EPHB1) | phosphorylation enrichment (EPHB2) | phosphorylation enrichment (FGFR1) | phosphorylation enrichment (FGFR3) | phosphorylation enrichment (Fer (mouse)) | phosphorylation enrichment (Fes) | phosphorylation enrichment (Fyn) | phosphorylation enrichment (Hck) | phosphorylation enrichment (Jak2) | phosphorylation enrichment (MERTK) | phosphorylation enrichment (c-Abl (mouse)) | phosphorylation enrichment (c-Src) | SH2 binding enrichment (Grb2 SH2) | SH2 binding enrichment (SHP2-C SH2) | SH2 binding enrichment (c-Src SH2)
LISVSYDDWDY [GRIN2A_Y281] | 2.2 | 0.813 | 0.827 | 0.901 | 1.05 | 4.25 | 1.92 | 0.773 | 0.666 | 1.35 | 0.691 | 1.01 | 0.652 | 1.07 | 1.39 | 1.9
DWLRRYLENGK [HLA-A_Y195_E190D] | 1.1 | 0.723 | 0.946 | 0.728 | 0.708 | 1.02 | 1.04 | 0.642 | 0.705 | 0.986 | 0.864 | 0.584 | 0.617 | 0.654 | 0.366 | 0.211
DAPVVYLGSFG [PRAG1_Y132_R137G] | 0.863 | 0.389 | 0.579 | 0.491 | 0.623 | 0.475 | 0.851 | 0.514 | 0.631 | 0.776 | 0.437 | 0.671 | 0.507 | 0.646 | 6.03 | 0.479
IRKKFYRAILE [CHD7_Y1218_Q1214R_YF] | 0.569 | 0.386 | 0.58 | 0.426 | 0.444 | 0.42 | 0.62 | 0.57 | 0.455 | 0.797 | 0.618 | 0.568 | 0.658 | 0.619 | 0.458 | 0.433
FLTQHYDAKPQ [ANG_Y38] | 0.732 | 0.637 | 0.581 | 1.14 | 0.58 | 0.658 | 0.741 | 0.583 | 0.67 | 0.869 | 0.557 | 0.613 | 0.609 | 0.902 | 0.64 | 0.481
EFDRLYEEFTR [PIK3R1_Y467_YF] | 1.59 | 3.46 | 2.77 | 0.65 | 0.807 | 6.18 | 1.15 | 7.47 | 6.11 | 1.01 | 3.04 | 0.841 | 5.36 | 0.92 | 1.05 | 0.516
PNRILYGDFQQ [MYH7_Y715_R719Q] | 0.601 | 0.504 | 0.516 | 0.422 | 0.475 | 0.375 | 0.798 | 4.31 | 1.42 | 0.861 | 0.408 | 0.549 | 3.04 | 0.823 | 0.935 | 0.503
LRFDVYGGENE [STOX1_Y610_E608D_YF] | 1.09 | 0.596 | 0.644 | 0.509 | 0.629 | 0.594 | 1.29 | 0.539 | 0.498 | 1.22 | 0.405 | 0.793 | 0.528 | 0.943 | 0.798 | 0.523
GELQGYDIMEP [MSH2_Y863_S860L] | 1.23 | 0.554 | 0.522 | 0.445 | 0.666 | 0.471 | 1.13 | 0.412 | 0.508 | 1.13 | 0.419 | 0.658 | 0.436 | 0.851 | 0.534 | 4.99
FQRLQYIKQLG [SAMHD1_Y146_R145Q] | 0.715 | 0.92 | 0.705 | 0.451 | 0.517 | 0.453 | 0.854 | 0.374 | 0.418 | 0.934 | 0.404 | 0.665 | 0.476 | 0.867 | 0.666 | 0.422
SEEVNYATLTF [CLEC12B_Y7_T6N] | 1.1 | 1.98 | 1.46 | 1.25 | 1.4 | 1.45 | 1.37 | 1.33 | 1.66 | 1.12 | 0.905 | 1.38 | 1.41 | 0.762 | 3.03 | 0.391
YGAHNYHPLPV [OAT_Y55] | 0.61 | 1.24 | 1.53 | 9.73 | 5.68 | 1.06 | 0.728 | 0.599 | 1.28 | 0.642 | 2.37 | 0.675 | 0.632 | 0.866 | 0.827 | 1.01
ATDLAYYLVRK [ASL_Y375] | 1.63 | 0.602 | 0.543 | 4.91 | 4.21 | 0.786 | 1.41 | 0.85 | 0.885 | 3.03 | 1.19 | 1.04 | 1.27 | 1.25 | 0.988 | 0.798
FSDPDYLAAVD [GLB1_Y154_S149F] | 1.45 | 0.58 | 0.556 | 0.479 | 0.691 | 0.475 | 0.939 | 0.504 | 0.702 | 0.928 | 0.42 | 0.577 | 0.381 | 0.746 | 0.551 | 0.417
HNLYSYPTKHE [MYO3A_Y1396] | 3.92 | 11.6 | 16 | 0.782 | 0.838 | 15.2 | 1.18 | 5.22 | 8.1 | 0.561 | 13.6 | 3.28 | 2.96 | 0.619 | 0.752 | 1.8
GDEVEYMLVSF [GCLC_Y53] | 2.31 | 0.665 | 0.829 | 3.97 | 3.39 | 2.43 | 1.1 | 0.841 | 1.15 | 0.976 | 0.473 | 0.677 | 1.16 | 0.821 | 0.701 | 0.407
